Blank lines part the entries; values can stand above or below the substance they belong to.
Key:
[1] = biological target: bovine pancreatic trypsin (bovine)
human plasmin (human) [2] = biological target: human plasmin (human)
recombinant tryptase = recombinant tryptase (UniProt Q15661)
[3] = biological target: human plasma kallikrein (human) (UniProt P03952)
[4] = biological target: recombinant human FVIIa (NovoSeven) (human) (UniProt P08709)
urokinase (uPA) = urokinase (uPA) (UniProt P00749)
recombinant sc-tPA = recombinant sc-tPA (UniProt P00750)
human α-FXIIa (human) = human α-FXIIa (human) (UniProt P00748)
[5] = biological target: bovine factor Xa (bovine)
[6] = biological target: bovine α-thrombin (bovine); experiment: enzyme inhibition (amidolytic activity, chromogenic substrate); Ki of thrombin inhibition; tight-binding kinetics assumed, apparent (native inhibitor); the conditions of the Ki determination itself are not told
[7] = biological target: bovine pancreatic trypsin (bovine); experiment: native gel or EMSA; 500 ng human thrombin or bovine trypsin in 25 mM Tris-HCl pH 8.0, 190 mM glycine, mixed with increasing boophilin, 15 min at room temperature; 10% Tris-glycine polyacrylamide gel at 4°C, silver-stained
human α-thrombin (human) = experiment: as above
[8] = biological target: bovine pancreatic trypsin (bovine); experiment: enzyme inhibition kinetics (progress curves, chromogenic substrate); slow-binding inhibition; second-order rate constant k2/Ki from kobs; 0.2 mM Chromozym TH (trypsin, 6.25 ng/ml) or Chromozym PL (plasmin, 12.5 µg/ml); boophilin 0.1-0.65 µM (trypsin) or 0.04-0.4 µM (plasmin); 45 min at 37°C
human plasmin (human) [9] = experiment: as above
Target sequence in this assay (P00747 20-580, chain 1 of 2): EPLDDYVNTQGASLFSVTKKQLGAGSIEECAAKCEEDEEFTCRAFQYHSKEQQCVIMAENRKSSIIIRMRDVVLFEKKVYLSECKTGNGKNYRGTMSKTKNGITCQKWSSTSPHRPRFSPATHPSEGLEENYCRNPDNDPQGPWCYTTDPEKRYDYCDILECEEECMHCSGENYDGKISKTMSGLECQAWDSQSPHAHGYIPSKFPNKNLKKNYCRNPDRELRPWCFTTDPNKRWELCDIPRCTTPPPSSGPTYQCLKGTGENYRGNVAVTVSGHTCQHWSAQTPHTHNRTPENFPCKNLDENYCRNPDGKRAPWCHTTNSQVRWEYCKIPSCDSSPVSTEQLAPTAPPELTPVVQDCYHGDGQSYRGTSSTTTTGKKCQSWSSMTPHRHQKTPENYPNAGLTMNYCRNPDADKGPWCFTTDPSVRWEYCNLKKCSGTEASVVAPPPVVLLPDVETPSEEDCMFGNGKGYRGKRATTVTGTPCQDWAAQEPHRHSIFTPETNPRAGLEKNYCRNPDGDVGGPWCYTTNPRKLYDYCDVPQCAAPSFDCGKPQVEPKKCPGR
Target sequence in this assay (P00747 581-810, chain 2 of 2): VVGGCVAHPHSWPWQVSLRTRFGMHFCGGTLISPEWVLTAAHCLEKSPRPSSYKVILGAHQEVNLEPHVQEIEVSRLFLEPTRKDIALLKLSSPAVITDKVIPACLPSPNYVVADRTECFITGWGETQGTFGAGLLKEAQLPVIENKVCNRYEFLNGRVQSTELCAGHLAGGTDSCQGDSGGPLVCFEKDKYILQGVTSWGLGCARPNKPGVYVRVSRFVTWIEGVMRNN

Chain of human plasma kallikrein (human) (P03952 20-390, chain 1 of 2): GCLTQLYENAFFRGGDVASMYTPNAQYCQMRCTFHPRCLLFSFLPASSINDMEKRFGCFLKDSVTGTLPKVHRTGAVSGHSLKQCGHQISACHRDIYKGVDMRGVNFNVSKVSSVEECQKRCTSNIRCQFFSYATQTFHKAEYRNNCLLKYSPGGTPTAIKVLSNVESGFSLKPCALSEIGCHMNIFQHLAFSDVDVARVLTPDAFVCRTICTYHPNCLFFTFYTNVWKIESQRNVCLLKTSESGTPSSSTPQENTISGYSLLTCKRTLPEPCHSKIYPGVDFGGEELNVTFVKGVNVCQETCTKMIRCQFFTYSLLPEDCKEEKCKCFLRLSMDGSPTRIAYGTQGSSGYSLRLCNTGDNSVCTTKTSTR
Chain of human plasma kallikrein (human) (P03952 391-638, chain 2 of 2): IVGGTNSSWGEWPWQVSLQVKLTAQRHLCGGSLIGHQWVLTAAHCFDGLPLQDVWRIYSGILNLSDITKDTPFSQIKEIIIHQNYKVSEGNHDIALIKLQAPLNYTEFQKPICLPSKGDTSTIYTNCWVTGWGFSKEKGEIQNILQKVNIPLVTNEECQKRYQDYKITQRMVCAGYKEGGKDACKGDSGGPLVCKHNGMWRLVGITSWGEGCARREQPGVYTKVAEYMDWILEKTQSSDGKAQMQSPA
Chain of recombinant human FVIIa (NovoSeven) (human) (P08709 61-212, chain 1 of 2): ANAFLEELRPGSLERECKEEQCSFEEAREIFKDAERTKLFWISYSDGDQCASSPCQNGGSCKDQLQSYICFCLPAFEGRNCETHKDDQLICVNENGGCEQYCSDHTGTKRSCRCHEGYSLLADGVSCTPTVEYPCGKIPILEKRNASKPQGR
Chain of recombinant human FVIIa (NovoSeven) (human) (P08709 213-466, chain 2 of 2): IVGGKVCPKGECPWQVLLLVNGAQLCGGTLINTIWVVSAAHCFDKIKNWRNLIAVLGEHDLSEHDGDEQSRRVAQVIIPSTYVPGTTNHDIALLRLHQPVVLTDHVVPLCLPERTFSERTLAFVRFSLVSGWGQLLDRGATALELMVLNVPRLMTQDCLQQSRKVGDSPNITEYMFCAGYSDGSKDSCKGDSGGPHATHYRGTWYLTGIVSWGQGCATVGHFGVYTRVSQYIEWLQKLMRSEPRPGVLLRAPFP
Chain of human α-FXIIa (human) (P00748 20-372, chain 1 of 2): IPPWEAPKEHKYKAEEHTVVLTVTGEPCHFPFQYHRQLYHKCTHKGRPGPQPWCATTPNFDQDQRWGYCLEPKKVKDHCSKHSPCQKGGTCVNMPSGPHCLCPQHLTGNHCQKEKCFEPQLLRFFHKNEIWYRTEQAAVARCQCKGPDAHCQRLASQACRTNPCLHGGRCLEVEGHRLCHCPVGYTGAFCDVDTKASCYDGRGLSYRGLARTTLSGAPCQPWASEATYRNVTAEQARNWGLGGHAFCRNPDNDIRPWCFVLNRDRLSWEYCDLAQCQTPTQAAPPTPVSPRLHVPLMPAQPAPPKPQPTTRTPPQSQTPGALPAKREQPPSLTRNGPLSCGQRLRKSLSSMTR
Chain of human α-FXIIa (human) (P00748 373-615, chain 2 of 2): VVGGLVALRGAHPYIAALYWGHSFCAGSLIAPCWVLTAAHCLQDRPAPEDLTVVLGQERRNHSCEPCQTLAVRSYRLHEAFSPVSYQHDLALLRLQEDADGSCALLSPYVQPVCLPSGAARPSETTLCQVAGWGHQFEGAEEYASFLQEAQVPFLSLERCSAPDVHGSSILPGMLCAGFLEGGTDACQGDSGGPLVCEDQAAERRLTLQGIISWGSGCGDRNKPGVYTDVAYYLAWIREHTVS
Chain of recombinant tryptase (Q15661 19-275): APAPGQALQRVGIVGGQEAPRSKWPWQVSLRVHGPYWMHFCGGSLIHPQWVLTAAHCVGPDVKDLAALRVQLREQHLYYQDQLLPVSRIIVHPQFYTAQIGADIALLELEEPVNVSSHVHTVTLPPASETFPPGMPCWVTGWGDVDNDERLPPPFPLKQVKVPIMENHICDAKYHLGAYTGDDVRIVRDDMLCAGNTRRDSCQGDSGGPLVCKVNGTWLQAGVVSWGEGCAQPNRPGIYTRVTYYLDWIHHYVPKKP
Chain of recombinant sc-tPA (P00750 36-562): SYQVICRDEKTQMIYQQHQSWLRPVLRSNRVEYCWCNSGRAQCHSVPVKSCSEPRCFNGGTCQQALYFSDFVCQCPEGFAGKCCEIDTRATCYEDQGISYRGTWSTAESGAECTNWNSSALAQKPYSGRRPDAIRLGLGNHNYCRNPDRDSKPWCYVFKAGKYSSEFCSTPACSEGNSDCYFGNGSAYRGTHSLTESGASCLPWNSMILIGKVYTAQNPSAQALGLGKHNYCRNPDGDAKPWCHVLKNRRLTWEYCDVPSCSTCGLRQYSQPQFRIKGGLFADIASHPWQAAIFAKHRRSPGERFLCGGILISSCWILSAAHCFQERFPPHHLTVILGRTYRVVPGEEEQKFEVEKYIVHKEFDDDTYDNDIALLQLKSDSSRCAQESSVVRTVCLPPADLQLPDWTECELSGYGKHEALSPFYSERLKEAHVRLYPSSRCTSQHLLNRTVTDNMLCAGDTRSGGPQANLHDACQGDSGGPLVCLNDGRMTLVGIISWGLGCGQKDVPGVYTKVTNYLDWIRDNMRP

- Inhibition of amidolytic activity (%), recombinant inhibitor (C-terminal domain) 15.2 µM, substrate Pefachrome tPA [1]: 80%
- Inhibition of amidolytic activity (%), recombinant inhibitor (C-terminal domain) 15.2 µM, substrate Chromozym PL (human plasmin (human) [2]): 25%
- Inhibition of amidolytic activity (%), recombinant inhibitor (C-terminal domain) 15.2 µM, substrate Chromozym TH (recombinant tryptase): 8%
- Inhibition of amidolytic activity (%), recombinant inhibitor (C-terminal domain) 15.2 µM, substrate Chromozym PK [3]: 0%
- Inhibition of amidolytic activity (%), recombinant inhibitor (C-terminal domain) 15.2 µM, substrate Chromozym tPA [4]: 0%
- Inhibition of amidolytic activity (%), recombinant inhibitor (C-terminal domain) 15.2 µM, substrate Pefachrome uPA (urokinase (uPA)): 17%
- Inhibition of amidolytic activity (%), recombinant inhibitor (C-terminal domain) 15.2 µM, substrate Pefachrome tPA (recombinant sc-tPA): 2%
- Inhibition of amidolytic activity (%), recombinant inhibitor (C-terminal domain) 15.2 µM, substrate Pefachrome FXIIa (human α-FXIIa (human)): 0%
- Inhibition of amidolytic activity (%), recombinant inhibitor (C-terminal domain) 15.2 µM, substrate Chromozym X [5]: 0%
Substance: isolated C-terminal boophilin domain (domain or fragment)

- Ki [6]: 1.8 nM
- Inhibition of amidolytic activity (%), native inhibitor 3.53 µM, substrate Pefachrome tPA [1]: 97%
- Inhibition of amidolytic activity (%), native inhibitor 3.53 µM, substrate Chromozym PL (human plasmin (human) [2]): 87%
- Inhibition of amidolytic activity (%), native inhibitor 3.53 µM, substrate Chromozym PK [3]: 66%
- Inhibition of amidolytic activity (%), native inhibitor 3.53 µM, substrate Pefachrome uPA (urokinase (uPA)): 16%
- Inhibition of amidolytic activity (%), native inhibitor 3.53 µM, substrate Chromozym X [5]: 10%
- stoichiometry N [7]: 1
- stoichiometry N (human α-thrombin (human)): 1
- second order rate constant k2/Ki [8]: 308000 M⁻¹ s⁻¹
Substance: native boophilin (natural protein)

Substance: recombinant boophilin (full-length mature protein, variant H2) (from UniProt Q8WPI2 16-142) (natural protein)
- Ki [6]: 3.4 nM
- Inhibition of amidolytic activity (%), recombinant inhibitor (full-length) 2.36 µM, substrate Pefachrome tPA [1]: 98%
- Inhibition of amidolytic activity (%), recombinant inhibitor (full-length) 2.36 µM, substrate Chromozym PL (human plasmin (human) [2]): 95%
- second order rate constant k2/Ki [8]: 384000 M⁻¹ s⁻¹
- second order rate constant k2/Ki (human plasmin (human) [9]): 259000 M⁻¹ s⁻¹

Reference: paper PMC2230226
